{
  "source": "the DeepSol protein solubility set",
  "data": [
    {"assay": "soluble on expression in E. coli; label from the status in PepcDB or PDB records", "values": [
      {"sequence": "MSDMYDKINELYDRRREIELGGGDEKIEQQHAKGKLTARERIDLLLDEGTFVELNPFIEHRCTDFGLGEKKGPGDGVVTGYGKINGRTVFVFSQDFTVFGGALGEMHAKKITNIMDLAAKTGAPVIGLNDSGGARIQEGVLSLDGYGHIFYRNAIYSGVIPQISVIMGPCAGGAVYSPAITDFVFMVEKTSQMFITGPKVIEAVTGEKISAEDLGGARVHNTISGNAHFAAANEEEALAEVRRLLGYLPSNNNEKPPFGPIPDGDDYRPDLADVVPIDAVRPYDVRHVIAQVVDDGSFMEVQKDFAKNIVIGFARIKGEVVGLVCNQPKFMAGGLDIDSSDKAARFIRFCDSFNIPIITFEDVTGFFPGVKQEHGGIIRHGAKILYAYSEATVPKITVILRKAYGGAYVALNSKSIGADVVYAWPNAEVAVMGPQGAANIIFAGEIEKSPNPEETRAQKIAEYREKFANPYVAAKYGMIDDVIDPRDTRIKLIQALEMLRNKHEERPKKKHGNIPL", "soluble on expression in E. coli": "not soluble"},
      {"sequence": "MSLRIPTKPSPVFDAATDPAGSGKDLGNLPDWDLSDLYAAPDAPEVTRDLDRLKTLCADFAERYEGKLADLDAQGMLTCVTAHEEIDRIAGRLMSYAGLRYYQVTTDGERAQFLQNCQEKLTDYTTPLVFFSLEINRIPDDKLDALFEANADLARYKPIFDRLRAMRPYQLSDELEKFLHDQSAVGSAAWNKLFDETMARLTFSPEGEDEDLSLEATLNLLSEQKRSRREAGARELARVFGENLPLFARVHNTLAKEKEIEDRWRKMPSAQTARHLSNHVEPEVVEALRNAVVDAYPKLSHRYYALKAKWLGLETMEVWDRNAPLPMEEERVIDWPKAREMVLSAYAGFDPEMAAIAEPFFDRGWIDAGVKPGKAPGAFAHPTVTDAHPYVLLNYLGKPRDVMTLAHELGHGVHQVLAAGQGELLADTPLTLAETASVFGEMLTFRKLLAEAPDAAQKKVLLAGKVEDMINTVVRQIAFYDFECKLHEARRTRGELTTSQINELWMSVQGESLGPAFTFMDGYETFWSYIPHFVHSPFYVYAYAFGDGLVNALYAVYEEGDPDFQKKYFEMLKAGGSKHHSELLKPFGLDASDPKFWDKGLSMISGFIDELEAMEDEGHHHHHH", "soluble on expression in E. coli": "soluble"},
      {"sequence": "MDAVSKAAIRLLDTIGITGVTKVNTYAGPEQEYFLIDKKFYAQRPDLIMTGRTLLGALPPKGQQLEDHYFGSIPDRVLEFMQEVEEELFLLGIPAKTRHNEVAPHQFEIAPIFEQVNLASDHNLLVMEVMRKVADKKGFALLLFEKPFAGINGSGKHNNWSIGIDGGMNLLDPGDTPESNISFLVFLVAVLKGVLKRSAILRASVASIGNDHRLGANEAPPAVITVFLGDLLEKVLDAIESGKVDLKTEKQILDLGLSHVPVLNKDYTDRNRTSPFAFTGNKFEFRAVGSSQPISVPNMVLNTIMAEALDDLNAEILAKIEGGMAKEDAILAAVRDGIIATKAVRYPGDNYSEDLQRAAAERGLPNMKNTPESVRAWTDKDTVSMFVKYGVLTAEEIESRYNVRIERYVKGIDI", "soluble on expression in E. coli": "not soluble"},
      {"sequence": "MKEIDIIQQIKLGEVSKVQFKERLLDNYDIGCELVAFSNARGGTLVVGAVDKTGNINPLSYLEVQETTNTLSNIASENVVPAILVDVETISVDGGSLVVAHIKEGLNKPYHDNRGIVWVKNGADKRKVFDNAELAEMMTDCGSFSPDEAGVRDATIKDLDEGTIKTFLSNKFDKVLARKGLVGDAFREASLDTVCSAIASGHNGEKLLRNLRFIRPDGKITVAAMLLFGKYTQRWLPMMTAKCICFVGNNLGGTQFRDKVNDADIEGNLLHQFETIMDFFTRNLRHIQVGNEFNSQGVLEIPYTSLVEFTVNALVHRSLNATAPIRIFIFDDRVEIHSPGILPNGLTVDDIVIGTSMPRNMFLFTNAIHLLPYTGAGSGMLRALSEDVNVSFTNNDRTNEFVITINRQISNQPNADSDTDLDTDSDTFNADSDTKLRYSDTDLDTDSDTFNADSDTIRPKITNKQRDIVNFCSVPRSSKEILERVGVTYHSKNIQTYIMSLIEAGYLEMTNPEHPNASNQKYRRSKKLEHHHHHH", "soluble on expression in E. coli": "soluble"},
      {"sequence": "MGSDKIHHHHHHMAESKTKRLLYFMSELEKGNQINKEEYIAKFNISDRTMKEDVSELKTNLKELRPNMQIKFSRKHACYFASYEQGYGNLKYNQAVILSKILLESRALRKEEVAEIINIFVERAVDDKERTRIKKLTQFELNSYQELKFYQKSNKSILPTISAIFDAIVDQRPLAFSYTKPSSKVEEYIVLPISVIFDNHYFYCISYKLDNCFQSRYELQELRYFRVDRFKTIHKSISNSAFALTEEEQERLITDEQVRYQTFSMLSDQKWVRIQFRYTGQFRDVLEADIPKLKMINELEEGIIYEIETLSLLGFQKYIQRFDGDFVFLNIKSIKK", "soluble on expression in E. coli": "not soluble"},
      {"sequence": "MGSDKIHHHHHHMVSTIGIVSLSSGIIGEDFVKHEVDLGIQRLKDLGLNPIFLPHSLKGLDFIKDHPEARAEDLIHAFSDDSIDMILCAIGGDDTYRLLPYLFENDQLQKVIKQKIFLGFSDTTMNHLMLHKLGIKTFYGQSFLADICELDKEMLAYSLHYFKELIETGRISEIRPSDVWYEERTDFSPTALGTPRVSHTNTGFDLLQGSAQFEGKILGGCLESLYDIFDNSRYADSTELCQKYKLFPDLSDWEGKILLLETSEEKPKPEDFKKMLLTLKDTGIFAVINGLLVGKPMDETFHDDYKEALLDIIDSNIPIVYNLNVGHATPRAIVPFGVHAHVDAQEQVILFDYNK", "soluble on expression in E. coli": "not soluble"},
      {"sequence": "MSLRWEGALSAGQRKASNAIVVNLKAKTDMLLWAVAGSGKTEMMFEGMDWALRQGFRICVASPRVDVCLELLPRLKEAFPSIDIVCLYGDSKDNYQGEQFVIATTHQLIRFYEAFQVIFIDEVDAFPYAKDPFLEYAVMKARTKEGSTIIITATPEKKWQEECVRGKRNFVKIPGRYHRKKLPVPRTCWIGPWKKNLAKGKITPKLIQWMNDVKKKDQPALIFFPEIDAMNKFANALENKGYASEGHHHHHH", "soluble on expression in E. coli": "not soluble"},
      {"sequence": "MSAETATIPEVSNQETKAEKVIADSLEAKKDESAAVEINGSSTHENGDTNIEKKTEEPVVEAKVSEEPATTSETPAAQVTESQKDEKTDDAPAEPAEVAVEAAKEEPVVEEKKEDAPEPVVTEEKKSEEAPAPEEKKSEEVVAAEEKKEPAAVVEEKKEVPETPVVEDKKEEAPASSEEKKDEPVVNTEEKKDAAEAPAADEESEAAEEKVAETTVAPVATPSGRGRGRGRGRPPGPNATPKAAASEKKRAAKPKAAVNPESIAASRPRRSTSNRIDYANSDTSTVLAEVDDEIPGKLFRGRKPPRGKITKYVSDSDGAPSDEDDVDFGKKKKGAPSTRGRGRPPSSNRPTRAAATKRSAKDASDESNEDEIEYDDKSDEDVSPRKKARGAPARAAADDEDDEGEEMDASEEVEA", "soluble on expression in E. coli": "not soluble"},
      {"sequence": "KNFDGDLNDYRQWRLAQENAAVAPAASAQSQSRKDTKRIEAQIRQEKARRGKPIQQKIDRAEKEMAQLSEIQTACEAFLAQEEAYFEENKEKLQDTLSELAKVKTQLAQIEEVWLACQEELEQIETEIEKQFAER", "soluble on expression in E. coli": "not soluble"},
      {"sequence": "MQVNEEGFAIDDKEYAMKTELKFASKHSSRLKIERNVMESYSKCDAQCKEHFSELIDFGQSPVWKWIVMTIVGPSLEELKMKYKPSDIPPSTILQCGLQTMKAIHDFHQIGFLHRDIKPANYCIGYGSKSETIYVLDFGLARKYRLPNGQVRPPRPKTKMIGTPRYCSRASHRCEELGRRDDYESWFFMFIDLVDTTLIDWKGLTRPDAYAKKQELFTKLKTYEKHPMFKVISIYLDNLVYDSEVKFGVLREAITDYARGCKLTLKEPLVWFNQSTCPSPSTAPGTGASRMATNIDLKSIASDRNEENSLDRSKTGTLSFNNSKNKKPSRY", "soluble on expression in E. coli": "not soluble"},
      {"sequence": "MGSDKIHHHHHHMKVTIIGAAGQIPHFLIPMLQKQTDAELTLFARNATSRLLDYSKPTVRIVDGDASKSGDVKTAITDADVVFMDFDNPEAVKNVIKVMDQLGKKRLIVAGVLGVYDEVAGAFGKWNNMMIGSGYLPHKQAVTELEKSDLDYTYMRMTWLYDQDGNTNYETQKKGQPLIGAQVTRQAVSQYVIDMIKNPELGIRESNGVVEPNTNFAKPSFY", "soluble on expression in E. coli": "not soluble"},
      {"sequence": "MASASNKQLELWKQYADTKNPAIKEQLIIEYSNIVKYIAGRLSIYFGSNVEYDDLIGYGIFGLIDAIEKFDINKGVKFETYASLRIRGSIIDSIRELDWVPRSLRQKNKELEKVYAEIENELGRSASDKEVADKLGITVDELNKLLNEVNLSSMISLEEFLEQNYEIGVTTAPESRDEKPEGYIEMAELREILADAISKLPEKEKMVITLYYFGEVVK", "soluble on expression in E. coli": "soluble"},
      {"sequence": "MGSDKIHHHHHHMKNYALLNGAYDNKTMYDFKPVRADNTYLYDSQNRKYLDLRSGLWNTSLGYIDSLYQRVSKRFDQVLNKKLPYLDIHSFQHDIYDEVAQKVLELTGHAFKRVLYTNSGSENTELALKIADYTNKKGENNRILAFKDSYHGTFFGGVSVSGIDQEINSSFYPKYGEVTFIDYPKSAEQEKNVLDYIANVASFYDVMMIEPILASAGIYFASTDFFNALLKLLRKNQVLIVFDEVATGFFKTGKPFYFQQLSEKPDILCLSKAINNGITSFGCVCVNEEVDAKLQKNPKTMEHFSTQNGNLLGLESANIVLDYYLKSRDVIKGKVKDISDSISNVLDSQNVFYRNQGIMTAIRTESNQSLQLMKSLEKLGILTYLYVNEEEEGLSIMPPININLNVLEKALKLISKKIESQNSF", "soluble on expression in E. coli": "not soluble"},
      {"sequence": "MSLPEYDPDKYRGIDVSYVNICMRRAWLSLHEIFYVRDSYYVSDGAYLADINRKGLPISTGRSRMDNVQIHKDFIMVHEYKRGYKMIKADKMQILHYMYIIKLKENLDIKGKLHFLGSKKVVDIELNDENLNELYKSYENIDKLKDMAKPPEPVRNYFCVHGCSYSDFCWCEGHHHHHH", "soluble on expression in E. coli": "soluble"},
      {"sequence": "MAISDWPEAERPREKLIEKGAAALSDAELLAIFLRTGITGVSAVELARKLLTHFGSLTKLCAASLHEFSELPGMGPAKFAQLQAVMEMAKRALAEELKNGDIMDSPQSVRNYLCLSLKGKPYEVFVGIFLDARHRTIVTEELFNGTLTQASVYPREVVKRALYHNAAAMIFAHNHPSGIAEPSTADEILTQSLKQALALVDVKVLDHFVIGSSEVVSFAERGLI", "soluble on expression in E. coli": "not soluble"},
      {"sequence": "MQFLQKFPPFNQMENAHLAYLVEQCQLRFYAADESIIKPGDGPVEHFYIVKQGRIVGERPHSAKRGTETTFEITTGECFPLAALLGERATRTEHLAAEDTFCLQLNKQAFIKLFALSTTFRDFALRGVSSLLDQVNQQVQQRAAETLGTQYSLNTRLGELAMRHPVMCSPDMPMRDAVKLMHEQQVGSIVIVDEQQAPLGIFTLRDLREAVADVNADFSAPVKNTMSPSPFHLSPDASAFDAAIAMTGRHIAHVCLVRDGRLCGVVSERDLFSLQRVDLVHLARTIRNAPRIEALAGLRGDIVQLVDRMLAHGASSTQITQIITLLNDHTVCRVIELTLAEKGDPGVPFSWLCFGSEGRREQTLHTDQDNGILFEASDATEAEQIRTLLLPIAERINQSLAQCGFTLCKGNIMAGNPDLCLSRLEWSRRFSAFIREATPENLLASSIYFDLRVVWGDESGGGQLRRGILDQVADNRLFQRMMAENALRQRPPVGRFKDFVLARKGSEKDTLDLKTEGLTPFVDGARLLALANGIGVNNTQERLRQLVEREVIDPLDGAAYEEAYHFIQQTRMQQHQLQSRQNLAYSNRIDPDTLNHLDRRILRESFRQAQRLQMSLTMRYQL", "soluble on expression in E. coli": "not soluble"},
      {"sequence": "MSLTECFLSDQEIRKLNRDLRILIAANGTLTRVLNIVADDEVIVQIVKQRIHDVSPKLSEFEQLGQVGVGRVLQRYIILKGRNSEHLFVAAESLIAIDRLPAAIITRLTQTNDPLGEVMAASHIETFKEEAKVWVGDLPGWLALHGYQNSRKRAVARRYRVISGGQPIMVVTEHFLRSVFRDAPHEEPDRWQFSNAITLAREGHHHHHH", "soluble on expression in E. coli": "soluble"},
      {"sequence": "MFEWIKTFIAVYETKNFSTAAKQLYISQPTVSLQIKKLEQHFSIKLFYRNGKQSVIPTKEADFLYPKMLSIIESLTTSFAQAAEKENFKEDCIIASSNTVAIYLLPDIMESLVTAFPLINFSIQLMNSNEVVDMVQNNHAHIGLIEKPIETKNLHKEIVYEDQLVLAGDAASKFWLLREKNSGLRFFNELYLNEHSINLPIIELNNNEVLLQLLKNNIGQSIVSRLSISDEIPWQPIDQSFASRKIFIVQTDHHANTSFSEVYNRIVEKIRERQT", "soluble on expression in E. coli": "not soluble"}
    ]}
  ]
}
